The text below walks through data of patent US20210221885A1 (NANJING LEADS BIOLABS, published 2021).

The target of assay [1] is T1, Human TIM-3 protein (Acrobiosystems, Cat#TM3-H5229) (human, UniProt Q8TDQ0 22-200).
T1 construct: Bought protein; also called recombinant human TIM-3; TIM-3 recombinant protein
T1 sequence (looked up): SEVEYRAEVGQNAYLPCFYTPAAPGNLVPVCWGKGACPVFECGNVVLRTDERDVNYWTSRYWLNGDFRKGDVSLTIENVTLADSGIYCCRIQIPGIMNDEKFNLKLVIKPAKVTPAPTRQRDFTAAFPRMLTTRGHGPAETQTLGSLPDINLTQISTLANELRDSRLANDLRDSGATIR
Briefly: ELISA, human TIM-3 coated at 1 ug/mL, detection with peroxidase-labeled anti-human IgG, OD450-620. As for the experimental part: (§1) An ELISA assay was used for determination of the relative binding activity of antibodies to recombinant human TIM-3.
(§2) Human TIM-3 protein (Acrobiosystems, Cat#TM3-H5229) in carbonate buffer (pH 9.6, 1.59 g sodium carbonate and 2.93 g sodium bicarbonate dissolved in 1L water) was immobilized onto 96-well plates at 1μg/mL by incubation overnight at 4° C. The plates were then blocked with 1% BSA in PBS for one hour at 37° C. After blocking, the plates were washed three times with PBST (PBS containing 0.05% Tween20). […] After binding, the plates were washed three times with PBST, incubated for one hour at 37° C. with peroxidase-labeled donkey anti-human IgG (Jackson Immuno Research) diluted 1/15,000 in binding buffer, washed again, developed with TMB and stopped with 1M H₂SO₄.
(§3) The absorbance at 450 nm-620 nm was determined.
In general terms: An ELISA detects its analyte on a solid surface through an enzyme-linked reagent.

Assay [2] concerns the target T2, Eu3+ cryptate labeled TIM3 (Cisbio kit, cat# 63ADK000CTLPEB) (human, UniProt Q8TDQ0 22-202, limits assumed, Eu3+ cryptate label).
T2 construct: Kit reagent; construct not described; also called Tim3-EuK protein; Tim3-EuK
T2 sequence (looked up): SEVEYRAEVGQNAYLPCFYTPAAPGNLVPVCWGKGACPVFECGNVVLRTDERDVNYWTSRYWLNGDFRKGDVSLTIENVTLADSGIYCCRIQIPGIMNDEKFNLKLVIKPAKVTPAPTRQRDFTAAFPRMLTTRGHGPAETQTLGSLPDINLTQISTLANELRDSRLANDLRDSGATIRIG
As to the kind of experiment: HTRF blocking assay (Cisbio kit), antibody added to a mixture of Tim3-EuK and Tag-Gal9; blocked ligand galectin-9; the unit is that of the concentration axis. The protocol:
The resultant mixture was incubated for 1 h at room temperature and then the fluorescence emission was read.

Assay [3] addresses T3, human TIM-3 stably expressed on CHO-K1 cells (human, UniProt Q8TDQ0 22-301).
T3 construct: whole, on cells; also called CHO-K1-TIM-3; cell surface TIM-3
T3 sequence (looked up): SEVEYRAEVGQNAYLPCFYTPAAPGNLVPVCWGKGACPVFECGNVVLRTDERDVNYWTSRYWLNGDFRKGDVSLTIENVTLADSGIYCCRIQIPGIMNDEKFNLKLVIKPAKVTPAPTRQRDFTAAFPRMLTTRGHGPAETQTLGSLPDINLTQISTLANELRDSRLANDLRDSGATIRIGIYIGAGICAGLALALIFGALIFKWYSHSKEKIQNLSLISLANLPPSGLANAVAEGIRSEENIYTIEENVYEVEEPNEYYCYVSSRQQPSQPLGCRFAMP
Briefly: flow cytometry on CHO-K1-TIM-3 cells, detection with PE anti-human IgG Fc, MFI; the unit is that of the concentration axis. The protocol: Anti-TIM-3 antibodies were tested for their binding ability to human TIM-3 stably expressed on CHO-K1 cells. A Chinese hamster ovary epithelial CHO-K1 cell line (ATCC, cat# CCL-61) was maintained in F-12K medium containing 10% FBS in a humidified incubator with 5% CO₂ at 37° C. Polyethylenimine (MW25K, 23966-2, Polyscience) was diluted to 1 mg/mL, and added to and incubated with pcDNA3.1 vector containing TIM-3 cDNA (NP_116171.3) at 37° C. for 10 mins. The mixture was added to and incubated with cell culture for 3hrs for DNA transfection.
The anti-TIM-3 antibodies were serially diluted in PBS buffer with 0.5% BSA. The antibodies were added to and incubated with CHO-K1-TIM-3 cells at 4° C. for 30min. The cells were pelleted (3 minutes, 600×g), washed once using PBS buffer with 0.5% BSA and re-pelleted. Then, the cells were incubated with a PE conjugated AffiniPure Goat Anti-human IgG, Fcγ Fragment Specific (Jackson ImmunoResearch Cat#109-116-098) diluted at 1:100 at 4 ° C. for 30mins. Cells were washed twice as described above, resuspended in PBS buffer. The cells were then sent to the […] flow cytometer (BD Bioscience) for binding activity analysis. The EC₅₀ values were calculated.
On the technique in general: A flow cytometer gives signals particle by particle.

The target in assay [4] is T1, Human TIM-3 protein (Acrobiosystems, …). Briefly: SPR, Biacore T200; antibody captured on anti-human IgG (Fc), human TIM-3 injected at 1.56-50 nM; 1:1 Langmuir fit. The protocol: The kinetic binding activity of anti-TIM-3 antibodies to human TIM-3 (Acrobiosystems, Cat#TM3-H5229) was measured by surface plasmon resonance using a Biacore® T200 system (Biacore, GE Healthcare).
Approximately 6800 RU of Anti-Human IgG (Fc) antibody (GE Catalog # BR-1008-39) was immobilized via amine coupling chemistry onto a CMS sensor chip. […] HBS-EP+ buffer was used as the running buffer. Varying concentrations of human TIM-3 protein, ranging from 1.56 nM to 50 nM, were injected over the antibody surfaces. Following each injection cycle, the CMS chip surface was regenerated using injection of 3M magnesium chloride solution. Background subtraction binding sensorgrams were used for analyzing the rate of association Ka and dissociation Kd, and the equilibrium dissociation constant KD. The resulting data sets were fitted with a 1:1 Langmuir Binding Model using the Biacore T200 evaluation software.
A general note: In SPR one partner is held on a chip, and binding of the other changes the refractive index at the surface.

Assay [5] addresses T4, Human TIM-1 (Sino biological, Cat#11051-HNCH) (human, UniProt Q96D42 21-295, limits assumed).
T4 construct: Bought protein; construct not described
T4 sequence (looked up): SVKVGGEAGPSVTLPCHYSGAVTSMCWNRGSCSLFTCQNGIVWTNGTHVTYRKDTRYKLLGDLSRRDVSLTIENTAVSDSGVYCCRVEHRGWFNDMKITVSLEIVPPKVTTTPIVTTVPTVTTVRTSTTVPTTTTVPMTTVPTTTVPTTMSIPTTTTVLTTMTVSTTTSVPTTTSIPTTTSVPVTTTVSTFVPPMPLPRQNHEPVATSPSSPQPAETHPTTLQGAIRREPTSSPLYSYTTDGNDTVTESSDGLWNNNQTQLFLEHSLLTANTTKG
Briefly: ELISA, human TIM-1 coated, serially diluted antibody. The protocol:
(§4) After blocking, the plates were washed three times with PBST (PBS containing 0.05% Tween20). […] After binding, the plates were washed three times with PBST, incubated for one hour at 37° C. with peroxidase-labeled donkey anti-human IgG (Jackson Immuno Research) diluted 1/15,000 in binding buffer, washed again, developed with TMB and stopped with 1M H₂SO₄.
as §3

Assay [6] deals with T5, Human TIM-4 (Sino biological, Cat#12161-H08H) (human, UniProt Q96H15 25-315).
T5 construct: Bought protein; construct not described
T5 sequence (looked up): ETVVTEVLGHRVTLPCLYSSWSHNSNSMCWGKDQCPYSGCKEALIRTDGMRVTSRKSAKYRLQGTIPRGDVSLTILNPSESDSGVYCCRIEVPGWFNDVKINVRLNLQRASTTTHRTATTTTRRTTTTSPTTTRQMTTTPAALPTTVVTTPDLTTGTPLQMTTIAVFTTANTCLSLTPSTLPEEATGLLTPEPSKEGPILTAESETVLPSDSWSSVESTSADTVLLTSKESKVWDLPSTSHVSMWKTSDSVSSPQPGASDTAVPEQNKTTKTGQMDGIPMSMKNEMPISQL
As to the kind of experiment: ELISA, human TIM-4 coated, serially diluted antibody. The protocol: as §4, §3

The target in assay [7] is T1, Human TIM-3 protein (Acrobiosystems, …). Briefly: ELISA, human TIM-3 coated at 1 ug/mL, detection with peroxidase-labeled anti-human IgG, OD450-620; the unit is that of the concentration axis. The protocol:
as §1, §2, §3

The target in assay [8] is C1q (Calbiochem, Cat#204876) (UniProt P02745 23-245; P02746 28-253; P02747 29-245). As to the kind of experiment: ELISA, antibody coated, C1q added, anti-C1q-HRP detection.
Sequence of C1q (Calbiochem, Cat#204876) (P02745 23-245, chain 1 of 3): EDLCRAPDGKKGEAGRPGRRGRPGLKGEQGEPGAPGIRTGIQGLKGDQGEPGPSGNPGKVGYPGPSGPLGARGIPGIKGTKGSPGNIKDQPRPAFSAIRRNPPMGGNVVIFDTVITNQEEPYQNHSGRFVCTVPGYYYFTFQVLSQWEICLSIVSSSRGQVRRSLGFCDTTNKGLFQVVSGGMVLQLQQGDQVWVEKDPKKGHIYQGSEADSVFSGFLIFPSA
Sequence of C1q (Calbiochem, Cat#204876) (P02746 28-253, chain 2 of 3): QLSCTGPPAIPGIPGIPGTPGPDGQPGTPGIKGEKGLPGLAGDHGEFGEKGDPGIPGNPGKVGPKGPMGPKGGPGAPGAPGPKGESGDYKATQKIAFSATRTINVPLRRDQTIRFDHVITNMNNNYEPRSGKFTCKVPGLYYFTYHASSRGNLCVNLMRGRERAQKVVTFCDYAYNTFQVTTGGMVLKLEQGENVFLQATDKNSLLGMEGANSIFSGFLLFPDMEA
Sequence of C1q (Calbiochem, Cat#204876) (P02747 29-245, chain 3 of 3): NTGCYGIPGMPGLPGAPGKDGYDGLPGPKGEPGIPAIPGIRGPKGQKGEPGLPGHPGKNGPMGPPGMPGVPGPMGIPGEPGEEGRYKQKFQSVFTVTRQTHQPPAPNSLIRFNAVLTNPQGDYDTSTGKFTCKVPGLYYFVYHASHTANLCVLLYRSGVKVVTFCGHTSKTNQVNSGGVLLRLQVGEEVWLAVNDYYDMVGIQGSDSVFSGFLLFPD

B1: ABTIM3 analog (antibody, human IgG4 S228P, kappa, V domains shown)
VH: QVQLVQSGAEVKKPGASVKVSCKASGYTFTSYNMHWVRQAPGQGLEWIGDIYPGSGDTSYNQKFKGRATMTADKSTSTVYMELSSLRSEDTAVYYCARVGGAFPMDYWGQGTLVTVSS
VL: DIVLTQSPDSLAVSLGERATINCRASESVEYYGTSLMQWYQQKPGQPPKLLIYAASNVESGVPDRFSGSGSGTDFTLTISSLQAEDVAVYYCQQSRKDPSTFGGGTKVEIKR
As to B1, the EC50 (read off the curve) – broadly, the concentration that produces a half-maximal response – in assay [1] was approximately 0.08 nM. Moreover, the IC50 (as a rule, the concentration needed to halve the response being measured) in assay [2] was 5.87 nM. For the same molecule, the concentration giving a half-maximal response (EC50) (as a rule, the midpoint of the concentration-response curve) in assay [3] amounted to 0.543 nM.

B2: anti-TIM-3 antibody TIM3-4G7 (antibody, human IgG4 S228P, kappa, V domains shown)
VH: EVQLVETGGGLVQPGGSLRLSCAASGFTFSSYAMSWVRQAPGKGLEWVSGISGSGGSTYYADSVKGRFTTSRDNSENTLYLQMNSLRAEDTAVYYCAGSYYDDAFDIWGQGTLVTVSS
VL: ETTLTQSPATLSLSPGDTATLSCRASQSVTKDLVAWYQQRPGQAPRLLLYGASSRATGIPDRFSGSGSGTDFTLTISRLEPEDFAVYYCQQYGRSPLTFGGGTKVEIKR
notes: Full-length IgG
Consider B2, for which the “EC50 (read off the curve)” value in assay [1] was in the range of 2 to 3 nM. Further, the IC50 in assay [2] was 4.73 nM.

B3: anti-TIM-3 antibody TIM3-6.11 (antibody, human IgG1, lambda, L234A L235A, V domains shown)
VH: QVQLVQSGAEVKKPGSSVKVSCKASGGTFSSYTIYWVRQAPGQGLEWMGSIIPILGTANYAQKFQGRVTITADESTSTAYMELSSLRSEDTAVYYCASASHTIWGQGTLVTVSS
VL: QAVVTQEPSLTVSPGGTVTLTCASSTGAVTSGYTPNWFQQRPGQAPRALIYTTSNRHSWTPARFSGSLLGGKAALTLSGVQPEDEADYYCLLYYGGAWVFGGGTKLTVLG
For B3, in assay [4], the Kd (as a rule, the constant that tells how readily two partners part at equilibrium) stood at 1.5 nM; the koff – broadly, a measure of how fast the partners let go of each other – came out at 0.000344 s⁻¹; the association rate constant (kon) – broadly, the second-order rate constant of association – was 230000 M⁻¹ s⁻¹.

B4: anti-TIM-3 antibody TIM3-6 (antibody, human IgG4 S228P, lambda, V domains shown)
VH: QVQLVQSGAEVKKPGSSVKVSCKASGGTFSSYTISWVRQAPGQGLEWMGRIIPILGTANYAQKFQGRVTITADESTSTAYMELSSLRSEDTAVYYCASASHTIWGKGTLVTVSS
VL: QAVVTQEPSLTVSPGGTVTLTCASSTGAVTSGYSPNWFQQRPGQAPRALIYTTSNRHSWTPARFSGSLLGGKAALTLSGVQPEDEADYYCLLYYGGAWVFGGGTKLTVLG
notes: Full-length IgG expressed in CHO-S cells
Regarding B4, in assay [2], the concentration for half-maximal inhibition (IC50) was 1.88 nM. For the same molecule, the binding result in assay [5] and in assay [6] was “no binding” in each case. The molecule further displayed an EC50 in assay [7] of 9.24 nM.

B5: anti-TIM-3 antibody TIM3-6.12 (antibody, human IgG1, lambda, L234A L235A)
heavy: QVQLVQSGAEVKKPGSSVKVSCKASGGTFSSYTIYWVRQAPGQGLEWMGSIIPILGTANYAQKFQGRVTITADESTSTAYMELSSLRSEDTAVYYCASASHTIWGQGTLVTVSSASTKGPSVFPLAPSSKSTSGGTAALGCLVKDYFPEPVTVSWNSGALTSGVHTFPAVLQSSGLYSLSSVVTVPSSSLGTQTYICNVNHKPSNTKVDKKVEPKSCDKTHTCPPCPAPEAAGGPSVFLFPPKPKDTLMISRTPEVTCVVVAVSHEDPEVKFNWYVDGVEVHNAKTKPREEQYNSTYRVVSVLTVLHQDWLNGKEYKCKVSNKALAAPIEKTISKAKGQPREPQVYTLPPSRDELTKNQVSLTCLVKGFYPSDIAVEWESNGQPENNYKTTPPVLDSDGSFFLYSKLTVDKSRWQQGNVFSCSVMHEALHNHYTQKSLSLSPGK
light: QAVVTQEPSLTVSPGGTVTLTCASSTGAVTSGYTPNWFQQRPGQAPRALIYTTNNRHSWTPARFSGSLLGGKAALTLSGVQPEDEADYYCLLYYGGAWVFGGGTKLTVLGQPKAAPSVTLFPPSSEELQANKATLVCLISDFYPGAVTVAWKADSSPVKAGVETTTPSKQSNNKYAASSYLSLTPEQWKSHRSYSCQVTHEGSTVEKTVAPTEC
notes: In the internalization assay the antibody carried pHAb amine reactive dye
B5: the binding result in assay [8] is on record as “no binding”. Further, the midpoint of the response in assay [3], the EC50, lay at 0.746 nM. In assay [7], this molecule registered an EC50 of 0.0915 nM. In assay [4], binding was put at a Kd of 1.66 nM, the koff was determined as 0.00037 s⁻¹ and the kon worked out at 223000 M⁻¹ s⁻¹.

B6: anti-TIM-3 antibody TIM3-6.10 (antibody, human IgG1, lambda, L234A L235A, V domains shown)
VH: QVQLVQSGAEVKKPGSSVKVSCKASGGTFSSYTIYWVRQAPGQGLEWMGSIIPILGTANYAQKFQGRVTITADESTSTAYMELSSLRSEDTAVYYCASASHTIWGQGTLVTVSS
VL: QAVVTQEPSLTVSPGGTVTLTCASSTGAVTSGNTPNWFQQRPGQAPRALIYTTSNRHSWTPARFSGSLLGGKAALTLSGVQPEDEADYYCLLYYGGAWVFGGGTKLTVLG
In assay [4], B6 came in with a Kd of 2.05 nM, an off-rate (koff) of 0.000415 s⁻¹ and a kon of 202000 M⁻¹ s⁻¹.

B7: anti-TIM-3 antibody TIM3-11 (antibody, human IgG4 S228P, lambda, V domains shown)
VH: QVQLQQSGPGLVKPSQTLSLTCAISGDSVSSNSAAWNWIRQSPSRGLEWLGRTYYRSKWYNDYAVSVKSRITINPDTSKNQFSLQLNSVTPEDTAVYYCARDQAAGFPQPYIYGMDVWGKGTMVTVSS
VL: LPVLTQPPSVSKGLRQTATLTCTGNSNNVGNQGAAWLQQHQGHPPKLLTYRTNNRPSGISERFSASRSGNTASLTITGLQPEDEADYYCSGWDSSLNEGVFGGGTKLTVLG
notes: Full-length IgG
As to B7, the IC50 in assay [2] turned out to be 3.56 nM. Also, the EC50 in assay [7] is 5.08 nM.
